Reference: patent US20240109965A1 (Ablynx, published 2024)

Legend:
[1] = target: T1, human T cell receptor (TCRαβ) on primary human T cells (human); experiment: cell-based or functional assay
[2] = target: T1, human T cell receptor (TCRαβ) on …; experiment: cell-based or functional assay; remark: listed apart in the source
[3] = target: T2, cynomolgus T cell receptor (TCRαβ) on primary cynomolgus T cells (cynomolgus); experiment: cell-based or functional assay
T2 V domain 1: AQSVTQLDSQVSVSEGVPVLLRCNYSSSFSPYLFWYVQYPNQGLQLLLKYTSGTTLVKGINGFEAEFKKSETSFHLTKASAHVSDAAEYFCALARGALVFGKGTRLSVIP
T2 V domain 2: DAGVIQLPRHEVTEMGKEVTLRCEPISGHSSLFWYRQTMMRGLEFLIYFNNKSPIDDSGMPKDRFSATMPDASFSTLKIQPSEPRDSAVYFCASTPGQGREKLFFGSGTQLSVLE

[4] = target: T3, cynomolgus TCRαβ-zipper protein (cynomolgus); experiment: SPR Biacore 8K+, multi-cycle kinetics, TCR-zipper immobilized
T3 construct: also called cyTCR(AEA41865)-zipper; CynoTCRαβ-zipper
Method: Binding of purified TCE-CD123-ALB and CD123-TCE-ALB ISVD constructs to human TCRαβ-zipper protein (huTCR(2XN9)-zipper, in-house produced) and cynomolgus TCRαβ-zipper protein (cyTCR(AEA41865)-zipper, in-house produced) was probed by Surface Plasmon Resonance (SPR) (Cytiva, Biacore 8K+). Both targets were immobilized on a CM5 sensor chip using standard amine coupling chemistry. […] Each concentration of the ISVDs was injected for 180s and dissociation was assessed during 600s.
Data was double referenced by subtracting a reference flow cell (FC) and a blank buffer injection. Affinity constants (ka, kd and KD) were calculated applying the Langmuir 1:1 interaction model using the Biacore Insight Evaluation Software (Cytiva, Version 3.0.12.15655).
T3 TCR alpha: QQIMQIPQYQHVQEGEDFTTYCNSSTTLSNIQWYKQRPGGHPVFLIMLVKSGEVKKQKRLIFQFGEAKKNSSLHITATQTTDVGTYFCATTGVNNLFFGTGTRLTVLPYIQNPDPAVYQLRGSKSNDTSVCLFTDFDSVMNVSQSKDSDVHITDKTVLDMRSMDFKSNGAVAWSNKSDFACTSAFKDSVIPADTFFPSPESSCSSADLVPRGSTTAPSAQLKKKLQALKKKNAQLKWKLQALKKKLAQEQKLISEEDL
T3 TCR beta: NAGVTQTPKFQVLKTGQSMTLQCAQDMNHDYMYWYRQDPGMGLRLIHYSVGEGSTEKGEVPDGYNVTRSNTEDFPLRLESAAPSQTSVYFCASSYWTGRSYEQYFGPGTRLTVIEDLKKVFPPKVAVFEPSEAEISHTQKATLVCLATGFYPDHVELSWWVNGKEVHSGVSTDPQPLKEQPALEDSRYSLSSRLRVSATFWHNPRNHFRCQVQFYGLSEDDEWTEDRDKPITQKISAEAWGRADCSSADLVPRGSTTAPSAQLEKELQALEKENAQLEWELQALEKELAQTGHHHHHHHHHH

T1 sequence (P0DTU3 134-275, chain 1 of 2): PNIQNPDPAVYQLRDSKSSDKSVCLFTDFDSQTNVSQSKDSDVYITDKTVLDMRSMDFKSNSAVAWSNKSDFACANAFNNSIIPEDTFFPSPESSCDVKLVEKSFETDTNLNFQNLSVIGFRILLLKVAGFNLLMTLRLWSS
T1 sequence (P01850 other isoform, or with tags, fused parts or gaps, chain 2 of 2, further chain): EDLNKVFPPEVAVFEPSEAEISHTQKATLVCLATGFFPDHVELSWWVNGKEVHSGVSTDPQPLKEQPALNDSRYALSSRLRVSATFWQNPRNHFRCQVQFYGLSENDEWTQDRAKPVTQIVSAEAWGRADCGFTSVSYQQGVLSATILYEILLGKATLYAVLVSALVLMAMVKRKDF

B1: T017001017 (bispecific antibody)
chain: EVQLVESGGGVVQPGGSLRLSCVASGYVHKINFYGWYRQAPGKEREKVAHISIGDQTDYADSAKGRFTISRDESKNTVYLQMNSLRPEDTAAYYCRALSRIWPYDYWGQGTLVTVSSGGGGSGGGSEVQLVESGGGVVQPGGSLRLSCAASGTTLDYYVIGWFRQAPGKEREGVSCISSSDGYTYYADSVKGRFTISRDNAKNTVYLQMNSLRPEDTALYYCATDPYYSSCHPFFADYEYDYWGQGTLVTVSSGGGGSGGGSEVQLVESGGGVVQPGGSLRLSCAASGFTFRSFGMSWVRQAPGKGPEWVSSISGSGSDTLYADSVKGRFTISRDNSKNTLYLQMNSLRPEDTALYYCTIGGSLSRSSQGTLVTVSS
EC50 (M), human T cell mediated MOLM-13 cell killing, Donor #1 [1]: 4.5e-11 M
EC50 (M), human T cell mediated MOLM-13 cell killing, Donor #2 [1]: 9.2e-11 M
Potency (M) - human T cells, KG-1a cell killing [2]: 2.1e-10 M
Potency (M) - cyno T cells, KG-1a cell killing [3]: 3.9e-11 M
Kd [4]: 13 nM

B2: T017001018 (bispecific antibody)
chain: EVQLVESGGGVVQPGGSLRLSCVASGYVHKINFYGWYRQAPGKEREKVAHISIGDQTDYAESAKGRFTISRDESKNTVYLQMNSLRPEDTAAYYCRALSRIYPYDYWGQGTLVTVSSGGGGSGGGSEVQLVESGGGVVQPGGSLRLSCAASGTTLDYYVIGWFRQAPGKEREGVSCISSSDGYTYYADSVKGRFTISRDNAKNTVYLQMNSLRPEDTALYYCATDPYYSSCHPFFADYEYDYWGQGTLVTVSSGGGGSGGGSEVQLVESGGGVVQPGGSLRLSCAASGFTFRSFGMSWVRQAPGKGPEWVSSISGSGSDTLYADSVKGRFTISRDNSKNTLYLQMNSLRPEDTALYYCTIGGSLSRSSQGTLVTVSS
EC50 (M), human T cell mediated MOLM-13 cell killing, Donor #1 [1]: 3.3e-11 M
EC50 (M), human T cell mediated MOLM-13 cell killing, Donor #2 [1]: 1e-10 M
Potency (M) - human T cells, KG-1a cell killing [2]: 2.7e-10 M
Potency (M) - cyno T cells, KG-1a cell killing [3]: 4e-11 M
Kd [4]: 32 nM

B3: T017001021 (bispecific antibody)
chain: EVQLVESGGGVVQPGGSLRLSCVASGYVHKINFYGWYRQAPGKEREKVAHISIGDQTDYAESAKGRFTISRDESKNTVYLQMNSLRPEDTAAYYCRALSRIQPYDYWGQGTLVTVSSGGGGSGGGSEVQLVESGGGVVQPGGSLRLSCAASGTTLDYYVIGWFRQAPGKEREGVSCISSSDGYTYYADSVKGRFTISRDNAKNTVYLQMNSLRPEDTALYYCATDPYYSSCHPFFADYEYDYWGQGTLVTVSSGGGGSGGGSEVQLVESGGGVVQPGGSLRLSCAASGFTFRSFGMSWVRQAPGKGPEWVSSISGSGSDTLYADSVKGRFTISRDNSKNTLYLQMNSLRPEDTALYYCTIGGSLSRSSQGTLVTVSS
EC50 (M), human T cell mediated MOLM-13 cell killing, Donor #1 [1]: 2.3e-10 M
EC50 (M), human T cell mediated MOLM-13 cell killing, Donor #2 [1]: 2.1e-09 M
Potency (M) - human T cells, KG-1a cell killing [2]: 5.7e-09 M
Potency (M) - cyno T cells, KG-1a cell killing [3]: 9.4e-10 M
Kd [4]: 3400 nM

B4: T017001020 (bispecific antibody)
chain: EVQLVESGGGVVQPGGSLRLSCVASGYVHKINFYGWYRQAPGKEREKVAHISIGDQTDYAESAKGRFTISRDESKNTVYLQMNSLRPEDTAAYYCRALSRISPYDYWGQGTLVTVSSGGGGSGGGSEVQLVESGGGVVQPGGSLRLSCAASGTTLDYYVIGWFRQAPGKEREGVSCISSSDGYTYYADSVKGRFTISRDNAKNTVYLQMNSLRPEDTALYYCATDPYYSSCHPFFADYEYDYWGQGTLVTVSSGGGGSGGGSEVQLVESGGGVVQPGGSLRLSCAASGFTFRSFGMSWVRQAPGKGPEWVSSISGSGSDTLYADSVKGRFTISRDNSKNTLYLQMNSLRPEDTALYYCTIGGSLSRSSQGTLVTVSS
Potency (M) - human T cells, KG-1a cell killing [2]: 7.6e-10 M
Kd [4]: 550 nM

B5: T017001019 (bispecific antibody)
chain: EVQLVESGGGVVQPGGSLRLSCVASGYVHKINFYGWYRQAPGKEREKVAHISIGDQTDYAESAKGRFTISRDESKNTVYLQMNSLRPEDTAAYYCRALSRITPYDYWGQGTLVTVSSGGGGSGGGSEVQLVESGGGVVQPGGSLRLSCAASGTTLDYYVIGWFRQAPGKEREGVSCISSSDGYTYYADSVKGRFTISRDNAKNTVYLQMNSLRPEDTALYYCATDPYYSSCHPFFADYEYDYWGQGTLVTVSSGGGGSGGGSEVQLVESGGGVVQPGGSLRLSCAASGFTFRSFGMSWVRQAPGKGPEWVSSISGSGSDTLYADSVKGRFTISRDNSKNTLYLQMNSLRPEDTALYYCTIGGSLSRSSQGTLVTVSS
EC50 (M), human T cell mediated MOLM-13 cell killing, Donor #1 [1]: 1.5e-10 M
EC50 (M), human T cell mediated MOLM-13 cell killing, Donor #2 [1]: 5.2e-10 M
Potency (M) - human T cells, KG-1a cell killing [2]: 2.3e-09 M
Potency (M) - cyno T cells, KG-1a cell killing [3]: 7.4e-10 M
Kd [4]: 1600 nM
